This is an account of results in PMC7052508 (Biochemistry and Biophysics Reports, 2020).

Read-outs that look alike come from different tables or passages of the source.

B1: α-crystallin (fraction containing αA-crystallin and αB-crystallin) (complex, porcine (purified from porcine lenses))
chain 1: MDIAIQHPWFKRALGPFYPSRLFDQFFGEGLFEYDLLPFLSSTISPYYRQSLFRTVLDSGVSEVRSDRDKFVIFLDVKHFSPEDLTVKVQEDFVEIHGKHNERQDDHGYISREFHRRYRLPSNVDQSALSCSLSADGMLTFSGPKVPSGVDAGHSERAIPVSREEKPSSAPTS
chain 2: MDIAIHHPWIRRPFFPFHSPSRLFDQFFGEHLLESDLFPASTSLSPFYFRPPSFLRAPSWIDTGLSEMRLEKDRFSVNLDVKHFSPEELKVKVLGDVIEVHGKHEERQDEHGFISREFHRKYRIPADVDPLTITSSLSSDGVLTVNGPRRQASGPERTIPITREEKPAVTAAPKK
B2: creatine kinase M (CKMM) (enzyme)
chain: not shown

Data set [1] addresses B2. Description: ITC. (Isothermal titration calorimetry measures the heat released or taken up as one component is titrated into another.)
The target of data set [2] is B2. Description: ITC. This is another data set of the same source.
The target in data set [3] is B2. Description: ITC. The source holds these as a separate data set.
The data set “SEC-MALS” concerns the molecule itself. Description: SEC-MALS. A general note: SEC sorts molecules by how far they enter the pores of the column.
Data set [4] has as its target B1. Description: ITC.
Data set [5] deals with B1. Description: ITC. This is another data set of the same source.
In data set [6] the target is B1. Description: ITC. The source holds these as a separate data set.
Data set [7] has as its target B1. Description: ITC. This is another data set of the same source.

Sequence of creatine kinase M (CKMM) (P00563 whole entry): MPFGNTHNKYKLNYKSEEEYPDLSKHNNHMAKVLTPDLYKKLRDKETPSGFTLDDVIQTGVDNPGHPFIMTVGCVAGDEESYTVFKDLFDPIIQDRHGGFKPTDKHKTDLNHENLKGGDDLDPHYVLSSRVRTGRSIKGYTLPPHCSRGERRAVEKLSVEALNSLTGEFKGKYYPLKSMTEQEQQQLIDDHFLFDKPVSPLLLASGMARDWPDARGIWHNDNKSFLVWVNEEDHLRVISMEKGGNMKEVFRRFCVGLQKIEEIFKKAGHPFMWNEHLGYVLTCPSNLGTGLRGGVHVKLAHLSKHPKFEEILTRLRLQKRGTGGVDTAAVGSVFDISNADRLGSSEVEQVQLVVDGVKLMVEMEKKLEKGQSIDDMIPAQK

Take B1: the Ka was 3e+06 M⁻¹ with creatine kinase M (CKMM) [1], 4.37e+06 M⁻¹ with creatine kinase M (CKMM) [2] and 1.23e+06 M⁻¹ in the data set with creatine kinase M (CKMM) [3]. The Kd (in general, the concentration at which binding is half-saturated) with creatine kinase M (CKMM) [1] was 333 nM; in the data set with creatine kinase M (CKMM) [2] it was 228 nM; in the data set with creatine kinase M (CKMM) [3], 816 nM. Moreover, the stoichiometry N – broadly, a count of units in the complex or per binding partner – in “SEC-MALS” fell in the range of 28 to 40.
Regarding B2, the dH in data set [4] stood at 86.6 kcal/mol; in data set [5], 130 kcal/mol; in data set [7] it was 102 kcal/mol. Moreover, the “stoichiometry N” value in data set [4] is 0.068; in data set [5], 0.063; in data set [6], 28; in data set [7], 0.068.
